Measurements published in patent US20210171647A1 (WUXI BIOLOGICS SHANGHAI, published 2021).
Changes are numbered by the printed parent chain.

Tests used:
Assay in all cases: ELISA, antibody coated, OX40-ECD.His mutant supernatant; relative to silent alanine substitutions;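 further: captured OX40 mutant protein detected with HRP-labelled anti-His antibody, absorbance read-out, scaled to the mean signal of control mutants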
human OX40-ECD.His P127A = molecular target: T1, human OX40-ECD.His P127A (human, UniProt P43489 29-214)
T1 construct: extracellular domain; not shown: C-terminal His-tag
T1 sequence (looked up): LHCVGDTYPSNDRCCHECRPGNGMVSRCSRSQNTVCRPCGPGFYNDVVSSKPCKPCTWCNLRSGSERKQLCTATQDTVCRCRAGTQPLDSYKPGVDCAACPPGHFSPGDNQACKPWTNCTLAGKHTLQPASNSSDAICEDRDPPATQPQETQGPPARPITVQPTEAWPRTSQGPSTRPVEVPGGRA

human OX40-ECD.His H132A = molecular target: T2, human OX40-ECD.His H132A (human, UniProt P43489 29-214)
T2 construct: extracellular domain; not shown: C-terminal His-tag
T2 sequence (looked up): T1 sequence (looked up) with A99P, H104A

human OX40-ECD.His P135A = molecular target: T3, human OX40-ECD.His P135A (human, UniProt P43489 29-214)
T3 construct: extracellular domain; not shown: C-terminal His-tag
T3 sequence (looked up): T1 sequence (looked up) with A99P, P107A

human OX40-ECD.His L29A = molecular target: T4, human OX40-ECD.His L29A (human, UniProt P43489 29-214)
T4 construct: extracellular domain; not shown: C-terminal His-tag
T4 sequence (looked up): T1 sequence (looked up) with L1A, A99P

human OX40-ECD.His D124A = molecular target: T5, human OX40-ECD.His D124A (human, UniProt P43489 29-214)
T5 construct: extracellular domain; not shown: C-terminal His-tag
T5 sequence (looked up): T1 sequence (looked up) with D96A, A99P

human OX40-ECD.His Q97A = molecular target: T6, human OX40-ECD.His Q97A (human, UniProt P43489 29-214)
T6 construct: extracellular domain; not shown: C-terminal His-tag
T6 sequence (looked up): T1 sequence (looked up) with Q69A, A99P

human OX40-ECD.His P66A = molecular target: T7, human OX40-ECD.His P66A (human, UniProt P43489 29-214)
T7 construct: extracellular domain; not shown: C-terminal His-tag
T7 sequence (looked up): T1 sequence (looked up) with P38A, A99P

human OX40-ECD.His Y36A = molecular target: T8, human OX40-ECD.His Y36A (human, UniProt P43489 29-214)
T8 construct: extracellular domain; not shown: C-terminal His-tag
T8 sequence (looked up): T1 sequence (looked up) with Y8A, A99P

human OX40-ECD.His S161A = molecular target: T9, human OX40-ECD.His S161A (human, UniProt P43489 29-214)
T9 construct: extracellular domain; not shown: C-terminal His-tag
T9 sequence (looked up): T1 sequence (looked up) with A99P, S133A

human OX40-ECD.His Q60A = molecular target: T10, human OX40-ECD.His Q60A (human, UniProt P43489 29-214)
T10 construct: extracellular domain; not shown: C-terminal His-tag
T10 sequence (looked up): T1 sequence (looked up) with Q32A, A99P

Fold Change (human OX40-ECD.His P127A): 0.953
Fold Change (human OX40-ECD.His H132A): 0.826
Fold Change (human OX40-ECD.His P135A): 0.899
Fold Change (human OX40-ECD.His L29A): 1
Fold Change (human OX40-ECD.His D124A): 0.989
Fold Change (human OX40-ECD.His Q97A): 0.981
Fold Change (human OX40-ECD.His P66A): 0.913
Fold Change (human OX40-ECD.His Y36A): 1
Fold Change (human OX40-ECD.His S161A): 0.945
Fold Change (human OX40-ECD.His Q60A): 0.971
B1: 1.134.9-u1-IgG1L (antibody, V domains shown)
VH: QVQLQESGPGLVKPSGTLSLTCAVSGGSISSYNWWSWVRQPPGKGLEWIGEIYHGGNTNYNPSLKSRVTMSVDNSKNQFSLKLSSVTAADTAVYYCARAPGDWGGSPYFDFWGQGTLVTVSS
VL: SSELTQDPAVSVALGQTVRITCQGDNLRTYYASWYQQKPGQAPILLIYGRNKRPSGIPDRFSGSSSGNTASLTITGAQAEDEAAYYCNSRDSSGNPVVFGGGTKLTVL
notes: fully human IgG1, lambda
